Assay results taken from PMC6152768, “Dynamic Allostery Modulates Catalytic Activity by Modifying the Hydrogen Bonding Network in the Catalytic Site of Human Pin1” (Molecules : A Journal of Synthetic Chemistry and Natural …, 2017).
Square brackets hold non-standard residues; d marks the D form. Ends that are not written are not given here. pT = C[C@@H](OP(=O)(O)O)[C@H](N)C(=O)O

Biological target: wild-type human Pin1 PPIase domain (human, UniProt Q13526 1-163)
Experiment: ITC; 1.5 uL injections of 10 mM Cdc25C phosphor-peptide into 200 uL of 0.2 mM wild-type or S138A Pin1 PPIase domain in the cell; Microcal Auto iTC200; single-site fit with the stoichiometry fixed to n = 1; in triplicate; buffer and temperature not stated
Settings: both partners purified

Chain of wild-type human Pin1 PPIase domain (Q13526 whole entry, the tested form may be a part): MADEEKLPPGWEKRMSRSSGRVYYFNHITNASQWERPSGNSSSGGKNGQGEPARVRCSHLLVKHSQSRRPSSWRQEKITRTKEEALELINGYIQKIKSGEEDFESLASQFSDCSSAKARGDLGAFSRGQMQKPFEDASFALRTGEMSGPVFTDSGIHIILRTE

B1: phosphor-peptide Cdc25C (EQPLpTPVTDL) (peptide)
peptide: EQPL[pT]PVTDL
notes: Phosphopeptide named Cdc25C; also called phosphorylated peptide Cdc25C; Cdc25C phosphor-peptide; source: bought: Funakoshi (Tokyo, Japan), used without further purification
- Kd: 1.81 ± 0.29 mM
- stoichiometry N: 1 ± 0.001
